Measurements taken from publication PMC8643277.

Assays:
GFP-NLRP6 monomer = target: T1, GFP-NLRP6 monomer (Homo sapiens, UniProt P59044 1-892); experiment: MST
T1 sequence: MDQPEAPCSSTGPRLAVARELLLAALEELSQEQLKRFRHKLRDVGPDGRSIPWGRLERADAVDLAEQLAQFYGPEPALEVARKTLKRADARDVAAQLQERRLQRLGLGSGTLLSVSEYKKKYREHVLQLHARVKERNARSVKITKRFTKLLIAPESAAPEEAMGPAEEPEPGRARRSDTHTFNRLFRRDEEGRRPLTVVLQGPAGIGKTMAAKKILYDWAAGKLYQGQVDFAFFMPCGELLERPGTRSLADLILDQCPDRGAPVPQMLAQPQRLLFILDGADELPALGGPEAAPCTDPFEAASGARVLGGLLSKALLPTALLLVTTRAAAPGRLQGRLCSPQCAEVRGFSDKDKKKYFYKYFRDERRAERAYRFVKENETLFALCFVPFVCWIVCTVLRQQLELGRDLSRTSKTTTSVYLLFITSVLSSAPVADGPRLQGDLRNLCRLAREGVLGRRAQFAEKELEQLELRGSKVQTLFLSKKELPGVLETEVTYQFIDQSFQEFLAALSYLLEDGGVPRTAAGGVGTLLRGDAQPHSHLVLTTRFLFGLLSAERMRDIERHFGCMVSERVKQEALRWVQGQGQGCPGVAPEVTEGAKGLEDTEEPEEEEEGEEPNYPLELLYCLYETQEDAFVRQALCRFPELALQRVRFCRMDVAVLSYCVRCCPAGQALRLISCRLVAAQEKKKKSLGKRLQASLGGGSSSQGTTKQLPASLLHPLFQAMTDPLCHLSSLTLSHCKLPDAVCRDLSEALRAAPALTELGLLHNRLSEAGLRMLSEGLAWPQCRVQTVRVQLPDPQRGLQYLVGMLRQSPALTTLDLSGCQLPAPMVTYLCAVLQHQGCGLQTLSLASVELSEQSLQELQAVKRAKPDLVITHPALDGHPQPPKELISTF

MBP-NLRP3 deltaPYD = MBP-NLRP3 deltaPYD (UniProt Q96P20 134-1034); experiment: EMSA
MBP-NLRP3 deltaPYD, sequence (Q96P20 134-1034, stated change not applied): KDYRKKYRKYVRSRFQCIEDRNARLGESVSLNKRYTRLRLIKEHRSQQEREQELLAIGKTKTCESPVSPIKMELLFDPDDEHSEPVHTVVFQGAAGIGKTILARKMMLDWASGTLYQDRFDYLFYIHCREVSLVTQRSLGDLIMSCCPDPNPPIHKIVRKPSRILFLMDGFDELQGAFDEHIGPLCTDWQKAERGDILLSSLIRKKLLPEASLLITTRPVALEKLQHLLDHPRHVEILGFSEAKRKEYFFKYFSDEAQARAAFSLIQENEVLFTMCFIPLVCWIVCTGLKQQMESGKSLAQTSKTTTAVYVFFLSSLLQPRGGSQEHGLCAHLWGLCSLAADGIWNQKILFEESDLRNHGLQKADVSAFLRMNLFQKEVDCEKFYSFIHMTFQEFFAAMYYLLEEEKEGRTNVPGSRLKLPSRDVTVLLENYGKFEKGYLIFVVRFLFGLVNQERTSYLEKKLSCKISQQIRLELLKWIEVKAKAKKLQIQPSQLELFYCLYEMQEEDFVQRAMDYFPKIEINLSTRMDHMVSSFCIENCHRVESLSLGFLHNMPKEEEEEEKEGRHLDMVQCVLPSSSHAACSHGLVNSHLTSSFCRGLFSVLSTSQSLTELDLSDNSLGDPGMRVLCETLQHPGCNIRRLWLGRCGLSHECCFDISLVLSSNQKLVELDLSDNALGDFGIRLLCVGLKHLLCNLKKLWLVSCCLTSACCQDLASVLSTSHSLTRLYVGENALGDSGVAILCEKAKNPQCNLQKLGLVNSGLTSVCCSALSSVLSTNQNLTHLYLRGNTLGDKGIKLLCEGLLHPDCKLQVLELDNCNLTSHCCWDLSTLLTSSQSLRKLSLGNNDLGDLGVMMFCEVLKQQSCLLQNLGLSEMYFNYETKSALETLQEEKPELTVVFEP

B1: 20-bp dsRNA (dsRNA)
RNA 1: GACCUUCUGAUCAGAAGGUC
RNA 2: GACCUUCUGAUCAGAAGGUC
With B1 the Kd (GFP-NLRP6 monomer) was about 1200 nM and the binding result (MBP-NLRP3 deltaPYD) was “no binding”.
